Measured values from PMC8708666 (2021).

Target: Integrin alpha1beta1 (Homo sapiens, UniProt P56199)
Experiment: MST

Sequence of Integrin alpha1beta1 (P56199 29-1141, chain 1 of 2): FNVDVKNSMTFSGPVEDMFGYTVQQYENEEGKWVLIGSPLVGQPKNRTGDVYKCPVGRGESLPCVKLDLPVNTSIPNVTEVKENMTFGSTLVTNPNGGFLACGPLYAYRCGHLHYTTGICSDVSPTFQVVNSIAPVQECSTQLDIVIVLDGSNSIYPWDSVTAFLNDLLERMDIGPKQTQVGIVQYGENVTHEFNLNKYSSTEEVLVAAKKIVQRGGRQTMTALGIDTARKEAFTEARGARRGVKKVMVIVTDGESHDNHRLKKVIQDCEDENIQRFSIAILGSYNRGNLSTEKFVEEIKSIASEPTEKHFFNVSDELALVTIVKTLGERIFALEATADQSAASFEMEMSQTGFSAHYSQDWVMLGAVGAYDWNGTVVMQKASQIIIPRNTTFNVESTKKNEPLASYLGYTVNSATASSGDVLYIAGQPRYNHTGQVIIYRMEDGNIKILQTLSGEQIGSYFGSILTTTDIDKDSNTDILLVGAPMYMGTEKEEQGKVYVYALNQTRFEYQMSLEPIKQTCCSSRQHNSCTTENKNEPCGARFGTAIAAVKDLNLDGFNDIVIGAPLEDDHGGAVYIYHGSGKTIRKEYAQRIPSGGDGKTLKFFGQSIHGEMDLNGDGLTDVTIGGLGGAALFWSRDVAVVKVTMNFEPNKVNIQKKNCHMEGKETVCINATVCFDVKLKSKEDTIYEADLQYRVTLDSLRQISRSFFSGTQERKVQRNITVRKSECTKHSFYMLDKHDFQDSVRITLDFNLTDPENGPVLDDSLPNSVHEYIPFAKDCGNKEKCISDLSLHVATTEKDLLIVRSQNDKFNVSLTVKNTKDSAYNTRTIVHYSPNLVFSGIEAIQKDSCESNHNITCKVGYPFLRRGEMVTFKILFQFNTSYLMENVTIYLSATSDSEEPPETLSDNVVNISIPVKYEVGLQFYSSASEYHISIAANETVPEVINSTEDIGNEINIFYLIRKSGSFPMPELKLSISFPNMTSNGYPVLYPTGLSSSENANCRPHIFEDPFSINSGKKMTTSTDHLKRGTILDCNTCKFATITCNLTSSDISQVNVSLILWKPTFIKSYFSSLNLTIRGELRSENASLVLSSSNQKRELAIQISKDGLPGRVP
Sequence of Integrin alpha1beta1 (chain, as listed by the source, chain 2 of 2): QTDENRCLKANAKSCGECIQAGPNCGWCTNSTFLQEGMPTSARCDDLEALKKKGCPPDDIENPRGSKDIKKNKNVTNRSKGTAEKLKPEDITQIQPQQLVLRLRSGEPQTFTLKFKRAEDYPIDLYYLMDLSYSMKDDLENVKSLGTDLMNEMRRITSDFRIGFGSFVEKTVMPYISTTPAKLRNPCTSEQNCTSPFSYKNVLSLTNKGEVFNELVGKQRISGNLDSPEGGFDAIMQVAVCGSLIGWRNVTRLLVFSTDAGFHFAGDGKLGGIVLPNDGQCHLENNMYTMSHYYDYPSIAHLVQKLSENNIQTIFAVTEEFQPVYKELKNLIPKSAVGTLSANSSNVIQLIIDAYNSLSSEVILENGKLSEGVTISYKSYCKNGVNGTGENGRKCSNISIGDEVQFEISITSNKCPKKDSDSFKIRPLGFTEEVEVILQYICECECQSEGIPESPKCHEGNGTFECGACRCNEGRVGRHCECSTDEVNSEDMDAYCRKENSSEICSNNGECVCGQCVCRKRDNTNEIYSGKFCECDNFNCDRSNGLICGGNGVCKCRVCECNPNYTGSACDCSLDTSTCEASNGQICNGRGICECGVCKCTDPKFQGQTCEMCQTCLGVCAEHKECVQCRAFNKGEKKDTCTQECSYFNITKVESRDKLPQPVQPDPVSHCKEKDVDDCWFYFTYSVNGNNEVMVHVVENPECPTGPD

| Binder | Kd [µM] |
| --- | --- |
| KGARGDRGSG [Collagen alpha-6(IV) chain peptide 10] | 47.3 |
| LAPGSFKGMK [Collagen alpha-6(IV) chain peptide 4] | 59.2 |
| NKESGFPGLR [Collagen alpha-6(IV) chain peptide 8] | 1470 |
| DPGFPGMKGK [Collagen alpha-6(IV) chain peptide 30] | 19.7 |
| GFQGEKGVKG [Collagen alpha-6(IV) chain peptide 5] | 790 |
| GPPGSIVKKG [Collagen alpha-6(IV) chain peptide 19] | 2190 |
| FKGTKGRDGL [Collagen alpha-6(IV) chain peptide 25] | 351 |
